# Values joined by “and” are separate entries in the source; they are usually repeats but may differ in a detail not shown here. Equal values may be shown once. Read-outs that look alike come from different tables or passages of the source.
# Experiments:
# [1] = tested on: (5)M2+TE, (5)M5+TE, and (5)M6+TE; conditions: Wu et al. 2000; cited from earlier work
# module 5+TE = target: T1, module 5+TE (Saccharopolyspora erythraea, UniProt Q03133); conditions: diffusive loading, shown earlier; cited from earlier work
# T1 construct: a single module of the DEBS PKS fused to the thioesterase (TE) termination region of module 6; thioesterase (TE) domain of DEBS (end of the same DEBS3 polypeptide); made in house; host or cells: E. coli BL21(DE3) co-expressing B. subtilis sfp
# (5)M3+TE [2] = target: T2, (5)M3+TE (Saccharopolyspora erythraea, UniProt Q03132+Q03133); conditions: previously shown; cited from earlier work
# T2 construct: (5)M3+TE: module 3 with N-terminal linker from module 5; N-terminal interpolypeptide linker of DEBS module 5 (start of DEBS3, Q03133); His6 (C); made in house; host or cells: E. coli BL21(DE3) co-expressing B. subtilis sfp
# (3)M3+TE = target: T3, (3)M3+TE (Saccharopolyspora erythraea, UniProt Q03132+Q03133); conditions: previously shown; cited from earlier work
# T3 construct: encodes module 3 of DEBS (M3) with its own N-terminal linker and with the thioesterase fused to the C-terminus; natural N-terminal interpolypeptide linker of module 3 (start of DEBS2, ahead of the Module 3 feature); His6 (C); made in house; host or cells: E. coli BL21(DE3) co-expressing B. subtilis sfp
# [3] = Cell-free synthesis of triketides from diketide thioester by single module constructs; assay type: biochemical; conditions: purified protein, after 30 minutes
# Procedure: (§1) A cell-free system, tested for the ability to convert the cysteamine thioester of 2S,3R-2-methyl-3-hydroxypentanoic acid (compound 2 in FIG. 2), consisted of 0.5-10 mM concentration of the thioester, 2.5 mM ^14C-labeled methylmalonyl CoA and 100 pmoles of purified protein prepared in Example 1 in a 100 μl reaction. In some cases, 1 mM of NADPH was added; this was done in assay mixtures containing (M2+TE), (M5+TE) and (M6+TE) proteins. The protein was, in each case, a single module of the DEBS PKS fused to the thioesterase (TE) termination region of module 6.
# (§2) The reaction mixtures were quenched and extracted by ethyl acetate and separated by thin-layer chromatography (TLC) to discern the formation of the triketide ketolactone 3 and triketide lactone 4 (both shown in FIG. 2) after 30 minutes.
# [4] = Kinetic constants kcat and KM for converting diketide to triketide (cell-free system); assay type: biochemical
# Procedure: as §1, §2
# The various constructs which are successful in converting diketide to triketide were then evaluated for the kinetic constants kcat and KM. […] This is evidently due to the absence of beta-carbonyl modifying enzymes in module 3 as verified by the fact that removal of NADPH, (which is required for the activity of such modules) from the reaction mixture of (N-ERL-M6+TE) also results in a lowering of the kcat.
# M3+TE [5] = target: T4, M3+TE (Saccharopolyspora erythraea, UniProt Q03132+Q03133); conditions: cited from earlier work
# T4 construct: encodes module 3 of DEBS (M3) with its own N-terminal linker and with the thioesterase fused to the C-terminus; natural N-terminal interpolypeptide linker of module 3 (start of DEBS2, ahead of the Module 3 feature); His6 (C); made in house; host or cells: E. coli BL21(DE3) co-expressing B. subtilis sfp
# [6] = Kinetic analysis of individual modules with natural diketide (NDK); assay type: biochemical; conditions: NDK as substrate, 30° C., saturating NADPH and methylmalonyl-CoA
# Procedure: In Vitro Polyketide Production. Assays of individual modules contained 1.0 μM protein, 1-10 mM N-acetylcysteamine thioester of the “natural” (2S,3R)-2-methyl-3-hydroxypentanoic acid diketide (NDK) (1), 4 mM NADPH, 440 mM sodium phosphate, 1 mM EDTA, 2.5 mM dithiothreitol (DTT), and 20% w/v glycerol, pH 7.2, in 80 μL. Reactions with M2 or M2(4) included 0.3 mM ^14C-methylmalonyl-CoA (specific activity adjusted to 10.4 mCi/mmol), and those with M3+TE or (5)M3+TE included 0.5 mM ^14C-methylmalonyl-CoA (specific activity reduced to 1.1 mCi/mmol). [M2(4) refers to a derivative of M2 in which the C-terminal linker has been replaced with its counterpart from module 4, whereas (5)M3 refers to a derivative of M3 in which the N-terminal linker has been replaced with its counterpart from module 5 (see FIG. 4).] […] Product formation was quantified by comparison with standards of the labeled methylmalonyl-CoA. […]
# Kinetic Analysis. For individual modules, the steady-state turnover number was determined from the time course of triketide formation, normalized to the concentration of protein. The dependence of the rate on substrate concentration was measured by varying the concentration of NDK while maintaining saturating levels of NADPH and methylmalonyl-CoA.
# M3+TE [7] = target: T4, M3+TE; test: Tetraketide lactone 2 formation, coincubation of donor module with M3+TE; assay type: biochemical
# Procedure: (§3) Assays of M2 and M3+TE contained 1.0 μM M2 and 0.4-4 μM M3+TE, 7 mM NDK, 0.5 mM ^14C-methylmalonyl-CoA (specific activity reduced to 3.4 mCi/mmol), 4 mM NADPH, 440 mM sodium phosphate, 1 mM EDTA, 2.5 mM DTT, and 20% w/v glycerol, pH 7.2, in 70 μL. Assays of M2(4) and (5)M3+TE were identical, except they contained 0.5 μM M2(4), 0.5-5 μM (5)M3+TE, and 0.4 mM ^14C-methylmalonyl-CoA (specific activity reduced to 6.2 mCi/mmol). The concentration of M2(4) was limiting in order to facilitate its saturation with (5)M3+TE. The reactions were prewarmed at 30° C. and initiated by the addition of the methylmalonyl-CoA. As described above, 20 μL aliquots were removed at various time points and processed. Extracts loaded onto TLC plates were separated using either 80% ethyl acetate in hexanes or 5% methanol in dichloromethane, both of which allowed identification of the tetraketide lactone 2 and the triketide lactones 3 and 4.
# (§4) For tetraketide formation, the rate of production of tetraketide was recorded for varying concentrations of M3+TE [or (5)M3+TE] at a fixed concentration of M2 [or M2(4)] and saturating concentrations of substrates. By fitting the rate dependence of tetraketide to a saturation curve, the maximal velocity (νmax) of tetraketide production was determined, and was assumed to represent the case where every M2 homodimer was productively associated with an M3+TE homodimer. Thus, the affinity of this protein-protein interaction could be calculated from the rate of tetraketide formation, as represented in Equation 1 ν=kcat[M2-M3] (1) ([M2], [M3], and [M2-M3] refer to the concentrations of M2, unbound M3+TE, and the M2/M3+TE complex, respectively). Since [M2-M3] is related to the KD of M2 and M3+TE as shown in Equation 2, [formula] which can be rearranged to yield Equation 3, [formula] where [M2]0=total concentration of M2, the velocity of tetraketide production can be defined relative to the KD: [formula] where ν=kcat[M2-M3] and νmax=kcat[M2]0. […]
# (5)M3+TE [8] = target: T2, (5)M3+TE; test: Tetraketide lactone 2 formation, coincubation of donor module with (5)M3+TE; assay type: biochemical
# Procedure: as §3, §4
molecule,measurement,setting,value
CCC(O)C(C)C(=O)SCCNC(C)=O (stereo not drawn) [2d],incorporation of NAC thioester (qualitative),[1],no turnover
CCC(O)C(C)C(=O)SCCNC(C)=O (stereo not drawn) [2b],"kcat (elongation rate constant), NAC thioester substrate",module 5+TE,0.00033 s⁻¹
same,incorporation of NAC thioester (qualitative),[1],substrates for the three modules
same,incorporation of NAC thioester (qualitative),(5)M3+TE [2],readily incorporated and elongated
same,incorporation of NAC thioester (qualitative),(3)M3+TE,readily incorporated and elongated
ERL − M6 + TE: module 6+TE carrying the upstream 39 amino acids (N-ERL) from module 5,Triketide Formed,[3],Yes
same,Triketide Formed,[3]; listed as (N-ERL-M6+TE),able to produce the triketide product
same,Km,[4]; (− NADPH),4.1 ± 0.4 mM
same,kcat × 100,[4]; (− NADPH),4.5 ± 0.7 min^−1
same,Km,[4]; diketide to triketide,4.3 ± 0.4 mM
same,kcat × 100,[4]; diketide to triketide,9.5 ± 0.6 min^−1
M5 + TE: single module 5 of DEBS fused to the thioesterase (TE) domain,Triketide Formed,[3],Yes
same,Triketide Formed,[3]; listed as (M5+TE),expected triketides were formed
same,Km,[4]; diketide to triketide,4.7 ± 0.4 mM
same,kcat × 100,[4]; diketide to triketide,7.5 ± 0.7 min^−1
"DEBS1: first protein of 6-deoxyerythronolide B synthase, loading module and extender modules 1 and 2",Kd,"M3+TE [5]; Gokhale et al. 1999, read-out: KD, previously reported value",2600 nM
same,"rate of formation of the same tetraketide, earlier measurement",M3+TE [5]; Pieper et al. 1997,0.23 min^−
CCC(O)C(C)C(=O)SCCNC(C)=O (stereo not drawn) [2c],incorporation of NAC thioester (qualitative),[1],no turnover
ERL − M2 + TE: module 2+TE carrying the upstream 39 amino acids (N-ERL) from module 5,Triketide Formed,[3],Yes
same,Triketide Formed,[3]; listed as (N-ERL-M2+TE),able to produce the triketide product
same,Km,[4]; diketide to triketide,4.6 ± 0.4 mM
same,kcat × 100,[4]; diketide to triketide,8 ± 0.6 min^−1
M2(4): derivative of M2 containing the C-terminal linker of DEBS module 4,kcat,[6],~0.0005 s⁻¹
same,"highest rate constants that could be measured, tetraketide lactone 2",M3+TE [7]; mismatched linker pair,0.02 to 0.03 min⁻¹
same,kcat (saturating rate) of tetraketide lactone 2 formation,"(5)M3+TE [8]; fixed donor, variable (5)M3+TE",0.0123 ± 0.001 s⁻¹ and 0.0123 s⁻¹
same,Kd,(5)M3+TE [8]; from saturation curve,2100 ± 400 nM
"M2: module 2 of DEBS, thioesterase replaced with the natural C-terminal linker for module 2",kcat,[6],~0.00033 s⁻¹
same,Kd,M3+TE [7]; estimated from saturation curve,1100 ± 100 nM
same,kcat (maximum / saturating rate constant) of tetraketide lactone 2 formation,"M3+TE [7]; fixed donor, variable M3+TE, 7 mM NDK",0.0045 ± 0.00017 s⁻¹ and 0.0045 s⁻¹
same,"highest rate constants that could be measured, tetraketide lactone 2",(5)M3+TE [8]; mismatched linker pair,0.02 to 0.03 min⁻¹
